Source: paper PMC8991601

Assays:
[1] = tested on: N[C@@H](CC(=O)O)C(=O)Nc1ccc([N+](=O)[O-])cc1; experiment: purified protein; conditions: 10 mM Tris-HCl, pH 7.5, 50 °C
[2] = tested on: N[C@@H](CCC(=O)O)C(=O)Nc1ccc([N+](=O)[O-])cc1; experiment: purified protein; conditions: 10 mM Tris-HCl, pH 7.5, 50 °C

Substance | Km [1] [µM] | Km [2] [µM]
bDNPEP (recombinant bovine aspartyl aminopeptidase) (Bos taurus) | 389 | 314
cDNPEP (recombinant chicken aspartyl aminopeptidase) (Gallus gallus) | 767 | 137
